Measured values as given in the domain aggregation screens of Martell et al. (2025).

Assay: soluble fraction after stress (log2 fold change); higher = more stays soluble; pooled small domains, quantitative proteomics
Settings: stress: 50 degC
How it was run: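 The stress applied to every library was 50°C. These custom libraries of small protein domains were pooled and measured at high throughput with quantitative proteomics as the read-out. Aggregation propensity is expressed as the base-two logarithm of the fold change in how much of each protein remains soluble. The higher the value, the more of that protein stays in solution.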

Sequence	soluble fraction (log2)
HMSREEFLTELRKALQGRVSQQTVNDNLRYYEEYILTESHKGKTEAEVIAELGNPRLLAKSIIDAENAT	0.107
HMGVREIIVQFLEQFDKPKSVQEIVEYVLRYRNTTENSIRSTMYSGSQFRQFDNGYFGLSDKSYPNEYIYA	-0.603
HMIFELDSDRASAGNTIGKLVSKWNNTEVASVQFVSGDDTSNKDNASIYLNTRSGGSGNLVRLRITK	0.168
HMEREQPFAVTEAYRGMRLDRFLQAMLPRMSRAAIQDAIDNRVRLGSGRAAKASLRPAIGDTVFFGQRI	-0.822
HMLNIVTIFEEQFGRPLSPIELNIIKDWKESDYSDEMIVKALKEAVKSQVLNFRYVEGILNNWAKNG	-0.568
HMDTIYPFNPNFIDDYKGYVLGLNTNEIDRLLKYRSKGNWINSAEDFKKVTGIDDALLNKLSKSFKFPDWL	-1.44
HMNSLTVPDITNRTLAEASQVLLDMGLTPIPDAVAKDGVGDDVVYAQSPPPNVGAREGDVVTITYNPA	0.156
HMTYFIADLIGLQVYTDSGELLGKVDDIYNSGSADIYVVKDELGKQILLPGIKDVIKQIDVDNEKIIVHLI	-0.885
HMRRARVAGKGHFTGEDAMAVYRELEALFGETETLYLPGHRPFEAVLSKLALIGVPEKNTVPYTFAFVET	-0.433
HMGRMTRKDRALATDLYGRIVGNVDDFHEGRIDYETFSERQRGLWTTLDAAGPEVKRAVLADIRERL	-0.187
HMGKSKAAQSSLVRSIMHQISDKNRGPMPLSEIIDRASIQSIDEAIVRSLVSRMKEQGEIYEPSLGTYEF	-0.209
HMQGYELKMYVTPDTKYSVAVYDAKNEMVSYTMGFSAKAPFGQEGEVLETVKLEFDKLAVGNYELKYWI	0.314
HMESILDDFPGLGEKRKKALLEHFGSISKIKAATVGQLREVDGIGFETAAALREFLDANFPA	0.158
HMDGIPVPDVKGTVEAEATATLKNSGFEVTKTQDFSDTVEAGKVISQNPAGGSSAASGSSVTLVISQGPN	0.0569
HMRAPIGFRISNRRKSLKISQVALARLVGISPSYLNLIENNKRDVGGALLQRVALHLNIDIDDL	-3.02
HMESDAIAAAIAALPARYREVLLLRYDNGFSYSEISKALDMTEAAVRKTVQRAKEALQRTLQIQEEDT	-0.471
HMEPLKLGDATGDGKINLQDVLEMQKHMAGILVLKGKFFTAADVNGNGKIELVDVLSVQKYLAGVTAEV	0.00939
HMTGGLLVHVAGAVGAPGVVSLPEGARVVDAIEAAGGAREDADTDQLNLARPVVDGEQVRVPVVGEVLE	-0.0748
HMDGLPYPEAAEEPIAQVARNLGMDATRVSIALQEAKLIFRNLDETLAEIAANNGTTPQVVYDAIRHLEPP	-0.095
HMGYGEQEQEAQKYLALHALMSQDPTLAKMYQAPNQYKLMSHVMEQNGIKNVNDYLTDPQQLP	-0.00068
HMPAFGALTLRQRDLVELIAQGLDNSQIAARLGLAEKTVRNHITMIFNKLEMENRSQVIVRARESGFGAVR	-1.53

Sequence	soluble fraction (log2)
HMSLAVFLQGLLEEKQLKKADVIRRTGMEPTYGYHIFDGHKKHPARSKVLLLALAMGLTVKEAQHLLYYAG	-0.116
HMLSTQEYIKKNIENGSWKVGEKIPSENNLTEILGVSRASIRVAIQQFIALDVLNSIHGKGTFVKTNNIMG	0.256
HMNVNTHKTLILNSTFQPLSLATPQRALALLFSKKINVLKESDIKLRSVGQSVAIPKVAVLTYFVKA	-0.291
HMNYNEKGEYTRTLTSGSETAVMTYRNFGETLDVALFKNGVQTDSLRLIKSEPGVLYRQSNGQFEKI	0.0586
HMPGRKKLAIIYKNDYIGAFNLADSYRDSYEVSMYAFPKKVGKLLNRLELQGFNAYVIYDKDNEENNFNTI	-1.65
HMSVPRVWTDIQGRRVKGDFEGLRGDLVVLRVGGKSYAFPLVRLIASDQAYARSLVAGNPSK	-0.499
HMSKEEAIQAMKEGKKVTHRFFSSDEWMTIENGFLLLEDGVRISLEDFFNFRSDSLWDNGYELYNPH	-0.162
HMDGIDALEPLMRRVFEALPQRRSMTIERAAVAAGLDEESVKIALVRLQLEGYVANDERGWHRSKSPH	-0.911
HMVIGKHSGSHTLVNDLAKRGITLDKEESATLLEMVRKAAVGLHRSISSDELYGLYKDMKSGQDPFEDS	0.0935
HMRAVFEQLRIGQTLAGVVKAQEKGFSLVEIDGQTVAMRLPHPAAVGDTLRLRFAGHMPQAVFLLES	-0.561
HMITSELALVKLVVKGANRVEALRVAETFRARALDVTLSSFVFELTGKPSKLDAFIGLMRSLGDTEILKR	-4.06
HMAPLRTQYVNVNYANAAEIKTLISGADKEVGSLLSERGSVVVDKRTNTLIIQDTQARLNDIGDLIEQLD	-0.0505
HMKSDEGEIKKIVEEIISKNASVVEDYKKGKEVALQFLVGQGMKATKGSANPELLKKIILENI	0.506
HMGFKLQRYTTFVVERLKKYQDTPAAQMHDLLKEHYPDFPAVSPKTVYNYVMKIRQEHGLPAV	-3.63
HMREPQMVTVNGDKVTHGHAYRSNVNPEDWYFTARINGQQLKPQKMEPADVAAYDKKEIGVPELMQR	-0.0941
HMNVEQQNQARENIKRLMEEQGLSQPKLSEKAGIAFGTLSRILRGKQDLTIQTAEKIADALGLSVYDLAE	0.281
HMDYGTATASAILYLEKIDPENPYLLLAKDTITTNPKMSVNFALKGIIESKKGEKEENLNKALEIMSSL	0.049
HMFDFNNLSSLSDVELSVYRFVVNNPEKVAYMRVRDIAQKTHVANSSVMRFVHKIGFASFPEFKAYLKNIN	-1.03
HMEYRVRDKMTDILELLTEHRGRIALRDAFPTGTREELLAAFLALLELTKMQTVIVYQDRLYDDIQIVMK	-0.204
HMTQSGLTQWEFNMLRQALIEMLGEKPGSVFELARLLPLEQEKNVQALRFLLDHDDQFHLKDEYISFVKRT	-1.92
HMVVEGMQFDRGYLSQYMVTDNEKMVADLENPYILITDKKISNIQEILPLLESILQSSRPLLIIADD	-0.214

Sequence	soluble fraction (log2)
HMAIPTTDSDKATDAQIKQIKLLGDIHPNLKLDAWLERNHVTWETLTREQAGNMMKAIKNKYGD	-0.00881
HMKTKMTPELTTVIEAQIQKEWSPEQISGWLKKTHPVSVSHQRIYQHIQADRQQGGTLHQHLRQAK	0.163
HMISAEPVGEDLFKVAFPFLGGSTVFEKTIEQFIEEHPSKRIDHIYTVPNPLRLKKADALIFYIITEEK	-1.02
HMGEFVQLKNRTGSVIEAKILNYQNGKVKLQRKDGVIFVVPISIFDRMSSSIIENKAKEMDSF	0.00542
HMERLKRVTLSLNQSNYSVTEIARRLQAITGIKDITVVEDEQAVYLKVDPATFDLTLAQQAV	-0.218
HMTKYVEGQKYVFEFRDGTITIGTYLRTGEGNIYIKDLSGEDIYIPKIMIAQIHLATDDNVKGDEFWF	-0.353
HMEDEVSSSAAYQALLEKGVSKTLARSWVIDYGEAYVLDKVDLTTSQAARGKIKSSTAGFLKAAIEEDFHN	-0.244
HMEPEAKIDFILKAAQKRLGLYGYEKTTMQEIAADINMSKAALYYYFPDKESLFKAVVENEQEEYFH	-1.63
HMPRIYSITINPEKIRTVIGPGGKVIKDITAKTGTKIEIDDSGKVDIFSPDEEHARMAVEIINTLTEE	0.14
HMKRVVFFNGISWYHRTKELLDDMTTKYGKKGGFATPEEAEKSYWEYEERYKDRQRELQVAYLKN	-0.648
HMSSVEEILQTLGGRIRTQRLAQGISQQVLADRAGLSLGAVRQLEGSGQSGLDTLVRVLFVLGIVDEL	-2.21
HMTKDYVVIYEGLAQTEAVEILGKLQEMGVSAKVDHNDSILVLKDEEDQIRMALATEGYPKS	-0.0917
HMKKSGFFSAGDRIQLTDNKGRQYSFNITEGKEFHTHQGFIKHDDLIGMPEGSVVSINSTTGVVQKFMAF	-0.164
HMDAVSYTQFMQDAKAGRIKKVIVHQSGILDVTTTEGRRFNLTSPGDLWMVGDLVKDGVDVVGAP	-0.0657
HMKTVLDSLLRILDSKELDIVVLRHIVGLTLTEIAKEKDMKKGTVFWMYNRAVKKLRLESERMGL	-2.11
HMISDEELLVSTKKEIMSLATVLTKTDKKDDAIAIMKEYDPAANPNRIKDVNKAKELLERLQKLG	-0.125
HMFHDPTMEETLINLKGITNEVLSLLSSSKIKKLEDLAEMSVPELRDIVENISDEEASALIMEARKPWF	-0.446
HMNSNISYSEFLSQVEKGTINSVEITGNSIKGIYADGGEFITFSPGDPGLIDKLQRSDIEILATPPA	-0.104
HMLPGKEIPLPEFLREAFARNEPALENFQNLAPSYRRQYILWITSAKTPETVQKRISESIGLLKENRKLGM	0.0472
HMTVDIADALRVLGLSDAPDWSDVRAAHRRAIVRTHPDAGGSAGDAARVNQAFDLLRKISGNGERPIPG	0.154
